± gives the standard deviation of the averaged measurements.

For the data set, the system named is Saccharomyces cerevisiae. Description: protein stability index of tFT-peptide fusion (C-terminal peptide) (PSI (0-1 scale)); higher = more stable (slower turnover). To be noted: temperature: 30 C. As to the method: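 MPS profiling in S. cerevisiae of the yeast C-terminome library: the last 12 aa of each annotated ORF are fused to the C-terminus of a sfGFP-mCherry timer, after a GGGS linker. Cells are FACS-sorted into 8 mCherry/sfGFP bins and deep-sequenced. PSI runs from 0 (unstable) to 1 (stable); wild type and das1Δ backgrounds, two technical replicates each.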

[1] abbreviates: genetic background: das1 deletion.

In turn, SVLKRVRKLFGE [VMA7 C-terminal 12 aa] returned a protein stability index under setting [1] of 0.712 ± 0.004 and a protein stability index (genetic background: wild type) of 0.684 ± 0.02.
On the same counts, the results for SWETKLKQNILE [CSN9 C-terminal 12 aa] are 0.7156 ± 0.0054 and 0.6441 ± 0.0042.
As for SWISNNTNVPKK [ARF3 C-terminal 12 aa], the protein stability index under setting [1] amounted to 0.6958 ± 0.0013 and the protein stability index (genetic background: wild type) turned out to be 0.678 ± 0.011.
On the same counts, the results for SYFNTIMHNCKP [SET4 C-terminal 12 aa] are 0.72482 ± 0.00043 and 0.715 ± 0.0071.
In turn, TAFLNKVYKRSK [ERG20 C-terminal 12 aa] displayed a protein stability index under setting [1] of 0.692 ± 0.007 and a protein stability index (genetic background: wild type) of 0.693 ± 0.043.
On the same counts, the results for TANKVELMANIV [MAK31 C-terminal 12 aa] are 0.6683 ± 0.0035 and 0.686 ± 0.041.
Regarding TASFAGSKKTFD [NSR1 C-terminal 12 aa], the protein stability index under setting [1] was determined as 0.706 ± 0.023 and the protein stability index (genetic background: wild type) was determined as 0.678 ± 0.012.
On the same counts, the results for TDDKEKLLKTLK [ACC1 C-terminal 12 aa] are 0.698 ± 0.016 and 0.734 ± 0.023.
On the same counts, the results for TDFENPNFRYTL [DAL5 C-terminal 12 aa] are 0.756 ± 0.039 and 0.794 ± 0.12.
For TDLPKWAQLDNS [PUS6 C-terminal 12 aa], in that order: 0.729 ± 0.028 and 0.702 ± 0.026.
As to TFCVYENLKHRL [FLX1 C-terminal 12 aa], the protein stability index is, setting by setting: under setting [1], 0.741 ± 0.019; (genetic background: wild type) 0.726 ± 0.017.
Consider TGGCSSSKFSLS [SKN1 C-terminal 12 aa], for which the protein stability index is, setting by setting: under setting [1], 0.692 ± 0.021; (genetic background: wild type) 0.68965 ± 0.00013.
As for THFFSIEWAGFG [SEN34 C-terminal 12 aa], the protein stability index is, setting by setting: under setting [1], 0.7116 ± 0.0045; (genetic background: wild type) 0.725 ± 0.041.
For TIAAGKISEITQ [HBS1 C-terminal 12 aa], in that order: 0.7292 ± 0.0066 and 0.697 ± 0.01.
With TIEEVKIPGLDI [MRPL50 C-terminal 12 aa], the protein stability index runs as follows: under setting [1], 0.701 ± 0.0088; (genetic background: wild type) 0.711 ± 0.0074.
For TISNWIQETKEV [STO1 C-terminal 12 aa], in that order: 0.70591 ± 0.00011 and 0.7293 ± 0.0034.
For TKARTLGEGSVN [YDR476C C-terminal 12 aa], in that order: 0.686 ± 0.032 and 0.674 ± 0.021.
On the same counts, the results for TKGEVATKPASY [MGA1 C-terminal 12 aa] are 0.702 ± 0.014 and 0.703 ± 0.018.
In the case of TKHTPKYLLNTI [YNL179C C-terminal 12 aa], the protein stability index under setting [1] came out at 0.6926 ± 0.0048 and the protein stability index (genetic background: wild type) was 0.6621 ± 0.00097.
On the same counts, the results for TKRLRKNKCIIM [RHO4 C-terminal 12 aa] are 0.743 ± 0.0024 and 0.702 ± 0.024.
With TKYKTVTVTAKT [YMR244W C-terminal 12 aa], the protein stability index was found to be 0.652 ± 0.014 under setting [1] and 0.71 ± 0.034 (genetic background: wild type).
On the same counts, the results for TNGITTERHKKK [NTG2 C-terminal 12 aa] are 0.714 ± 0.0084 and 0.668 ± 0.028.
Turning to TNTVPATSASSK [RGC1 C-terminal 12 aa], the protein stability index was 0.68862 ± 0.00043 under setting [1] and 0.701 ± 0.04 (genetic background: wild type).
For TNWGQHKTVQNT [PPE1 C-terminal 12 aa], in that order: 0.698 ± 0.024 and 0.713 ± 0.019.
For TNYEVTDTYTNS [SOM1 C-terminal 12 aa], the protein stability index is, setting by setting: under setting [1], 0.7107 ± 0.0011; (genetic background: wild type) 0.712 ± 0.017.
For TPRLYTDRSRDF [RPB2 C-terminal 12 aa], in that order: 0.743 ± 0.0033 and 0.713 ± 0.013.
TPSEDDDGAVEI [LSM3 C-terminal 12 aa]: the protein stability index under setting [1] came to 0.688 ± 0.0068 and the protein stability index (genetic background: wild type) amounted to 0.749 ± 0.062.
For TPTDSTPTKKDI [LAC1 C-terminal 12 aa], in that order: 0.6941 ± 0.0027 and 0.725 ± 0.019.
As to TRKKGGRRGRRL [RPS14A C-terminal 12 aa], the protein stability index is 0.711 ± 0.011 under setting [1] and 0.676 ± 0.011 (genetic background: wild type).
Take TRMSSPPPSTSS [SET2 C-terminal 12 aa]: the protein stability index reads like this: under setting [1], 0.695 ± 0.023; (genetic background: wild type) 0.6896 ± 0.0047.
On the same counts, the results for TSDQKNKRTQFS [RPB9 C-terminal 12 aa] are 0.6969 ± 0.0066 and 0.667 ± 0.07.
For TVFETLTLHSAN [JSN1 C-terminal 12 aa], in that order: 0.725 ± 0.024 and 0.68218 ± 0.00033.
On the same counts, the results for TVGYGILKVMGF [PHO91 C-terminal 12 aa] are 0.659 ± 0.012 and 0.656 ± 0.009.
Consider TVSLPSRYSRYN [ALR2 C-terminal 12 aa], for which the protein stability index reads like this: under setting [1], 0.6976 ± 0.0014; (genetic background: wild type) 0.684 ± 0.033.
Consider “VAKKRLSSRSKP [YNL162W-A C-terminal 12 aa]”, for which the protein stability index under setting [1] was 0.715 ± 0.05 and the protein stability index (genetic background: wild type) was 0.658 ± 0.02.
For VARYKMVSKRIW [EMP65 C-terminal 12 aa], in that order: 0.717 ± 0.011 and 0.654 ± 0.018.
Regarding VDIPVDVKKLQI [BUL2 C-terminal 12 aa], the protein stability index is, setting by setting: under setting [1], 0.723 ± 0.035; (genetic background: wild type) 0.696 ± 0.018.
VDMKWGSFPIFQ [YPR1 C-terminal 12 aa]: the protein stability index reads like this: under setting [1], 0.7256 ± 0.0028; (genetic background: wild type) 0.7 ± 0.027.
“VDSEGQIRYAKE [YCR087C-A C-terminal 12 aa]”: the protein stability index by setting is: under setting [1], 0.673 ± 0.028; (genetic background: wild type) 0.6705 ± 0.0015.
Take VEIPTVESTKSG [RNA14 C-terminal 12 aa]: the protein stability index is 0.696 ± 0.021 under setting [1] and 0.7544 ± 0.0014 (genetic background: wild type).
On the same counts, the results for “VEPVYLCASLSL [YCR047W-A C-terminal 12 aa]” are 0.666 ± 0.027 and 0.6733 ± 0.00078.
With VFEVFSRMDMLL [VPS74 C-terminal 12 aa], the protein stability index by setting is: under setting [1], 0.7149 ± 0.0058; (genetic background: wild type) 0.773 ± 0.027.
For VFGGCATTWIVL [ATS1 C-terminal 12 aa], in that order: 0.6971 ± 0.0038 and 0.692 ± 0.0096.
For VFLELKKAQRWA [API2 C-terminal 12 aa], the protein stability index by setting is: under setting [1], 0.703 ± 0.019; (genetic background: wild type) 0.686 ± 0.011.
Regarding VFNDIFRLNYSA [NTF2 C-terminal 12 aa], the protein stability index worked out at 0.7108 ± 0.0032 under setting [1] and 0.504 ± 0.0084 (genetic background: wild type).
On the same counts, the results for VFPETDSIFEPV [RAF1 C-terminal 12 aa] are 0.733 ± 0.022 and 0.715 ± 0.0081.
On the same counts, the results for VGKKLETFKKTN [WBP1 C-terminal 12 aa] are 0.717 ± 0.0088 and 0.48 ± 0.019.
With “VGRHSSRLMCPG [YBR126W-B C-terminal 12 aa]”, the protein stability index worked out at 0.6932 ± 0.0053 under setting [1] and 0.689 ± 0.022 (genetic background: wild type).
For VHAENTTLREIL [CDC50 C-terminal 12 aa], in that order: 0.706 ± 0.036 and 0.7076 ± 0.0047.
Take VHLEKKKDEDKK [UBX7 C-terminal 12 aa]: the protein stability index stood at 0.67376 ± 4e-05 under setting [1] and 0.668 ± 0.021 (genetic background: wild type).
For VIIVPIAVHFSR [SNC1 C-terminal 12 aa], in that order: 0.561 ± 0.024 and 0.581 ± 0.0095.
On the same counts, the results for VILSETVVILYY [YKR032W C-terminal 12 aa] are 0.346 ± 0.014 and 0.345 ± 0.0067.
For VKFGLQMAYLQS [YMR007W C-terminal 12 aa], in that order: 0.7023 ± 0.005 and 0.6586 ± 0.0059.
Turning to VLGDVIKIAQRL [HOM6 C-terminal 12 aa], the protein stability index worked out at 0.728 ± 0.008 under setting [1] and 0.747 ± 0.031 (genetic background: wild type).
On the same counts, the results for VLSNNVPYTQPR [RCH1 C-terminal 12 aa] are 0.703 ± 0.029 and 0.745 ± 0.054.
On the same counts, the results for VLYIILYYIILY [YGL024W C-terminal 12 aa] are 0.282 ± 0.02 and 0.181 ± 0.035.
Turning to VMQELRKLKNAM [GLO4 C-terminal 12 aa], the protein stability index is, setting by setting: under setting [1], 0.709 ± 0.018; (genetic background: wild type) 0.64 ± 0.025.
For VMSLYNLACKYI [SAM37 C-terminal 12 aa], the protein stability index stood at 0.797 ± 0.013 under setting [1] and 0.577 ± 0.056 (genetic background: wild type).
On the same counts, the results for VNELVELMTQSA [SEC18 C-terminal 12 aa] are 0.675 ± 0.015 and 0.695 ± 0.014.
Consider VNERSHDVKFTK [YIL165C C-terminal 12 aa], for which the protein stability index was found to be 0.686 ± 0.006 under setting [1] and 0.689 ± 0.01 (genetic background: wild type).
As for VNHSFEFNDVLQ [IFH1 C-terminal 12 aa], the protein stability index runs as follows: under setting [1], 0.686 ± 0.014; (genetic background: wild type) 0.738 ± 0.025.
As for VPGGKKTPTEAL [LSM5 C-terminal 12 aa], the protein stability index by setting is: under setting [1], 0.6817 ± 0.0014; (genetic background: wild type) 0.707 ± 0.026.
On the same counts, the results for VPQLHSFIAKEQ [RMD9 C-terminal 12 aa] are 0.699 ± 0.017 and 0.3 ± 0.0037.
For VPSLLILSVFFS [YPS3 C-terminal 12 aa], in that order: 0.27 ± 0.03 and 0.273 ± 0.012.
With VQEWEVLGRVDV [CPD1 C-terminal 12 aa], the protein stability index reads like this: under setting [1], 0.724 ± 0.014; (genetic background: wild type) 0.692 ± 0.022.
On the same counts, the results for VQQMVEMQGKMR [SGM1 C-terminal 12 aa] are 0.71134 ± 0.00034 and 0.68508 ± 0.00063.
In turn, VSDSSYDEYSNE [SYT1 C-terminal 12 aa] returned a protein stability index under setting [1] of 0.679 ± 0.021 and a protein stability index (genetic background: wild type) of 0.672 ± 0.03.
